Results: patent publication US20040091492A1

Columns and labels:
[1] = molecular target: HLA-A1 on Hmy2.C1R-A1 transfectant cells with the OD 309 peptide (ornithine decarboxylase 309-317) (human); test: HLA stabilization assay, acid-stripped Hmy2.C1R-A1 cells with OD 309 peptide and BB7.5 mAb, flow cytometry
[2] = molecular target: HLA-A2 on Hmy2.C1R-A2 transfectant cells with the HIV gag 77-85 peptide (human), A*02:0
[3] = molecular target: HLA-A3 on Hmy2.C1R-A3 transfectant cells with the pn2a.A3 peptide (human)
[4] = molecular target: HLA-A2 on Hmy2.C1R-A2 target cells pulsed with HTLV-1 TAX 11-19 peptide (human), A*02:0; test: cell-based or functional assay
[5] = molecular target: HLA-A3 on Hmy2.C1R-A3 transfectant cells with the pn2a.A3 peptide (human); remark: listed apart in the source
[6] = molecular target: HLA-A1 on Hmy2.C1R-A1 transfectant cells with the OD 309 peptide (ornithine decarboxylase 309-317) (human); test: competition with 2.5 µM myc-hβ2m on Hmy2.C1R-A1 cells with OD 309 peptide, 9E10 flow cytometry

For “hβ2m S55V (human β2-microglobulin with valine at position 55 of the mature protein) (from UniProt P61769 21-119)”, which fold better stabilization than wild-type hβ2m [1] is on record?
The fold better stabilization than wild-type hβ2m was 2 fold.

What about the fold better inhibition of myc-hβ2m binding than wild-type hβ2m [2] of the same substance?
Its fold better inhibition of myc-hβ2m binding than wild-type hβ2m is 2.5 fold.

What about the fold better inhibition of myc-hβ2m binding than wild-type hβ2m [3] of the same substance?
Its fold better inhibition of myc-hβ2m binding than wild-type hβ2m is 2.5 fold.

And the fold more effective than wild-type hβ2m at enhancing target cell lysis (CTL lysis assay) [4]?
The fold more effective than wild-type hβ2m at enhancing target cell lysis (CTL lysis assay) was 4 fold.

What about the fold better stabilization than wild-type hβ2m [5] of the same substance?
Its fold better stabilization than wild-type hβ2m is 3 fold.

And the fold better inhibition of myc-hβ2m binding than wild-type hβ2m [6]?
The fold better inhibition of myc-hβ2m binding than wild-type hβ2m was 2.5 fold.
